Consider one molecule from patent US20100093076A1, “SOLUBLE IL-27 RECEPTOR” (priority 2006, published 2010).

For test [1], the target named is T1, muIL-27 (Mus musculus, UniProt O35228+Q8K3I6).
T1 construct: purchased R&D Systems
T1 sequence (Q8K3I6 29-234): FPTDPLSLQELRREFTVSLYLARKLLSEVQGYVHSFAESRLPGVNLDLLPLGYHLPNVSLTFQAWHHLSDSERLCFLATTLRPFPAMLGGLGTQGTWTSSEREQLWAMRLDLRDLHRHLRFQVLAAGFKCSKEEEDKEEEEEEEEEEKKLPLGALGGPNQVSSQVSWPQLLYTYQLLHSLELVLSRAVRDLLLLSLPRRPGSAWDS
T1 sequence (O35228 19-228): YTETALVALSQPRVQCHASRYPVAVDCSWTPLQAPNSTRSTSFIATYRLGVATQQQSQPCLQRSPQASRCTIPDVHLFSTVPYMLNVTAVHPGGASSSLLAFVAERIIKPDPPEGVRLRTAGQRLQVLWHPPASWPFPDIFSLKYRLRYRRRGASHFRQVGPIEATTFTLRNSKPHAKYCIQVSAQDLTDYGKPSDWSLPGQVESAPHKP
The test is described as follows: Phospho-STAT3 (BIO-PLEX) neutralization of IL-27 by soluble receptors, mouse spleens. It is filed as cell-based. Particulars: ligand muIL-27 at EC90 (0.2 nM). An excerpt: (§1) Whole mouse spleens were harvested from C57 B1/6 mice and washed two times with 1×PBS before being plated out at 2×10^5 cells/well in assay media (RPMI 1640 plus 10% fetal bovine serum) in 96-well, round-bottom tissue culture plates. Total human PBMC (peripheral blood mononuclear cells) were thawed from a frozen vial collected from a leukapherisis donation and washed two times with 1×PBS before being plated out at 10^6 cells/well in assay media in 96-well, round-bottom tissue culture plates. […] Following pre-incubation, treatments were added to the plates containing the cells and incubated together at 37° C. for 15 minutes.
(§2) Following incubation, cells were washed with ice-cold wash buffer (BIO-PLEX Cell Lysis Kit, BIO-RAD Laboratories, Hercules, Calif.) and put on ice to stop the reaction according to manufacturer's instructions. […]
(§3) Capture beads (BIO-PLEX Phospho-Stat3 Assay, BIO-RAD Laboratories) were combined with 50 μL of 1:1 diluted lysates and added to a 96-well filter plate according to manufacture's instructions (BIO-PLEX Phosphoprotein Detection Kit, BIO-RAD Laboratories). […] After the final wash, beads were resuspended in 125 μL/well of bead suspension buffer, shaken for 30 seconds, and read on an array reader (BIO-PLEX, BIO-RAD Laboratories) according to the manufacture's instructions. Data were analyzed using analytical software (BIO-PLEX MANAGER 3.0, BIO-RAD Laboratories). […]

Test [2] deals with T2, huIL-27 (Homo sapiens, UniProt Q14213+Q8NEV9).
T2 construct: purchased R&D Systems
T2 sequence (Q8NEV9 29-243): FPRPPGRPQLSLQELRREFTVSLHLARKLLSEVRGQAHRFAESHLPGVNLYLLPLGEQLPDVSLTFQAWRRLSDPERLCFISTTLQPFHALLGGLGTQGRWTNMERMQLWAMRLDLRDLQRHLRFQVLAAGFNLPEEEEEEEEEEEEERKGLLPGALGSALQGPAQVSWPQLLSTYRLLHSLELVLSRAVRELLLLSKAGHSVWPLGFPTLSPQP
T2 sequence (Q14213 21-229): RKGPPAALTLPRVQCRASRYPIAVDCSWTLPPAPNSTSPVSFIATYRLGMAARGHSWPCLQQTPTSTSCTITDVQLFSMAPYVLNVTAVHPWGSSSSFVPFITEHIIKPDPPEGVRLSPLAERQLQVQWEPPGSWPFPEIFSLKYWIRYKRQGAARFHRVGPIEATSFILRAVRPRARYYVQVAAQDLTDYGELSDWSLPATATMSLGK
The description is as above. In kind it is cell-based. Particulars: ligand huIL-27 at EC90 (2 nM).
Source text: as §1, §2, §3

The IC50 is the midpoint of a concentration-inhibition curve.

B1: IL-27RAm(mFc1): Extracellular domain of mouse IL27RA fused to a wild type BALB/c mouse gamma2a constant region Fc tag (protein)
chain: MNRLERVALARLETPRLEGLLELELESLEMSLELELEGTRPRHGSPRGPRLEQCYSVGPRLEGILENCSWGLPRLEGDLEGLTPRPRVLEYHQSQKYHPRNRVWGLVKVPRSKQSWVTIPRRGLQFTMADKLELEIWGTQKGRPRLEWSSVSVASNLEGLTQMKPRDTPRQIFSQVASPISGLGLATLEGLATVQWAPRPRVWPRPRQKALETCQFRYKGLCQAGLAWTRLEGLPRQLEKTDGLETPRVGLMQNLEGLPRGTCYQVSGRCQVGLNGYPRWGGLWSSPRLESFQTPRFLEDPRGLDVWVSGTVCGLTSGKRAALELEVWKDPRRPRCVQVTYTVWFGAGDITTTQGLGLVPRCCKSPRVPRAWMGLWAVVSPRGNSTSWVPRPRTNLESLEVCLEAPRGLSAPRCDVGVSSADGSPRGIKVTWKQGTARGSPRLEGLYVVASPWAQDGDSLEDKLENWTRLEPRPRGNLESTLELEPRGGLFKGGVPRYRITVTAVYSGGLEAAAPRSVWGFRGLGLLEVPRLEAGPRAVWRLEPRDDPRPRGTPRVVALAWGGLVPRRHQLERGQATHYTFCIQSRGLESTVCRNVSSQTQTATLEPRNLEHSGSFKLEWVTVSTVALAGQGPRPRGPRDLESLEHLEPRDNRIRWKALEPRWFLESLEWGLELELEMGCGLESLEASTRCLEQARCLEHWRHKLELEPRQWIWGLRVPRDPRANSNSGQPRYIKGLVSLEPRQPRPRKDGPRILEGLVGLGLVGLLEQPRVVGLSPRKASAPRIYSGYGLKHFLEPRTPRGLGLLEGLELEV
modifications: left off: a dimerising Fc or GST
notes: Extracellular domain of mouse IL27RA fused to a wild type BALB/c mouse gamma2a constant region Fc tag
Take B1: the IC50 in test [1] was 0.18 nM; in test [2] it was 9.3 nM.
